In patent US20200239586A1 (LA TROBE UNIVERSITY, published 2020):
Blank lines part the entries; values can stand above or below the binder they belong to.

Columns and labels:
[1] = biological target: T1, synthetic peptide hFn14 sub-domain 2 (human, biotin on the added C-terminal lysine; disulfide bonds as in the solution structure of He et al. 2009); test: ELISA, synthetic biotin peptide on neutravidin plate; antibody concentration not given
T1 construct: also called sub-domain 2 peptide
T1 peptide: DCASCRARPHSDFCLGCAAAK
From the text: FIG. 21B is a graphical representation showing reactivity of anti-Fn14 mAbs CRCBT-06-001, CRCBT-06-002, CRCBT-06-003, CRCBT-06-004, CRCBT-06-005, CRCBT-06-006, CRCBT-06-007 and ITEM-1 with a synthetic peptide representing sub-domain 2 of Fn14. Plates were coated with sub-domain 2 peptide and various dilutions of antibody were allowed to bind, bound antibody was detected with anti-mouse HRP and TMB substrate. The average of duplicate readings are plotted, error bars represent standard deviations. The ELISA was repeated to ensure consistent results. The vertical line at 5 ng/ml within the linear part of the curves is the point at which a comparison of the reactivity of each mAb was analyzed.
The ELISA was performed essentially according to the manufacturer's recommended protocol (Pierce). Briefly, peptide was coated onto wells (in duplicate) at 1-10 μg/ml for 2 hours at room temperature. Wells were washed in PBS/0.05% Tween 20/0.1% BSA 3 times and dilutions of each antibody were added in wash buffer for 1 hour with gentle agitation. After another three washes anti-mouse HRP-conjugated to horse radish peroxidase (HRP; Chemicon) was added at 1/1000 dilution for 1 hour shaking. […] Optical density at 450 nm was quantified using a Spectromax absorbance spectrophotometer.

[2] = biological target: T2, His tagged hFn14 extracellular region mutant R56A (human, UniProt Q9NP84 28-77); test: ELISA with purified His-tagged hFn14 R56A; x axis 'Log (c)' without unit, µg/ml by the legend
T2 construct: not shown: (His)6 tag
T2 sequence (Q9NP84 28-77 R56A): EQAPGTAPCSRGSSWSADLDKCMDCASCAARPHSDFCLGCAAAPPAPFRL

[3] = biological target: phage expressed hFn14 mutant W42A (human, UniProt Q9NP84 28-77); test: phage ELISA (Method 2), antibody on plate, phage dilution 1/X on the x axis
phage expressed hFn14 mutant W42A, sequence (Q9NP84 28-77 W42A): as the sequence (Q9NP84 28-77 R56A) above, with W15A, A29R counted along it
From the text: (§1) For mutants P59A and F63A, binding was detected using HRP-conjugated anti-M13-phage polyclonal IgG and TMB substrate. For all other mutants binding was detected using Biotin-conjugated anti-M13-phage monoclonal antibody followed by HRP-conjugated Streptavidin and TMB substrate. Optical density at 450 nm was quantified using a Spectramax spectrophotometer. Error bars for each dilution represent the standard deviation of duplicate assays. FIG. 27A wild type Fn14, FIG. 27B W42A, FIG. 27C S54A, FIG. 27D A57G, FIG. 27E P59A, FIG. 27F S61A, FIG. 27G F63A, FIG. 27H L65A. In all cases error bars represent the standard deviation. X axis=dilution of phage. Methods according to Epitope mapping using phage expressed Fn14—Method 2
(§2) The wells of Maxisorp immunoplates (Nunc) were coated overnight at 4° C. with the target monoclonal antibodies or recombinant Tweak-Fc at a concentration of 1.5 μg/ml in PBS. mAb 5G8 was used as a negative control for ELISA plates coated with tested antibodies. […] 10-fold serial dilutions of phage were made using PBS solution and phage dilutions were added to the coated, blocked ELISA plates for 1 hour, shaking at room temperature. Phage was subsequently removed from the wells and the ELISA plates were washed three times with PBS/0.05% Tween 20.
(§3) Method A: HRP-conjugated anti-M13-phage antibody (GE Healthcare) at a 1/5000 dilution in PBS was then added to the wells of the ELISA plates for 1 hour, shaking at room temperature. The antibody solution was then removed from the wells and the ELISA plates were washed four times with PBS/0.05% Tween 20. Method B: Biotin-conjugated anti-M13-phage antibody (GE Healthcare) diluted in PBS was then added to the wells of the ELISA plates for 1 hour shaking at room temperature. The antibody solution was then removed from the wells and the ELISA plates were washed three times with PBS/0.05% Tween 20. HRP-conjugated Streptavidin diluted in PBS was then added to the wells of the ELISA plates for 1 hour, shaking at room temperature. The solution was then removed from the wells and the ELISA plates were washed three times with PBS/0.05% Tween 20. ELISAs were developed using TMB substrate and the reaction was stopped using 2 M […] solution.

[4] = biological target: phage expressed hFn14 mutant S61A (human, UniProt Q9NP84 28-77); test: as above
phage expressed hFn14 mutant S61A, sequence (Q9NP84 28-77 S61A): as the sequence (Q9NP84 28-77 R56A) above, with A29R, S34A counted along it
From the text: as §1, §2, §3

[5] = biological target: phage expressed hFn14 mutant A57G (human, UniProt Q9NP84 28-77); test: as above
phage expressed hFn14 mutant A57G, sequence (Q9NP84 28-77 A57G): as the sequence (Q9NP84 28-77 R56A) above, with A29R, A30G counted along it
From the text: as §1, §2, §3

[6] = biological target: phage expressed hFn14 mutant P59A (human, UniProt Q9NP84 28-77); test: as above
phage expressed hFn14 mutant P59A, sequence (Q9NP84 28-77 P59A): as the sequence (Q9NP84 28-77 R56A) above, with A29R, P32A counted along it
From the text: as §1, §2, §3

human Fn14 = biological target: T3, human Fn14 (human, UniProt Q9NP84 28-129); test: cell-based or functional assay
T3 sequence: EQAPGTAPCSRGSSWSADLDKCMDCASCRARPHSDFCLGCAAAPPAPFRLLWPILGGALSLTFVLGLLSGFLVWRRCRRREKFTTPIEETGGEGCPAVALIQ

[7] = biological target: T4, His tagged hFn14 extracellular region mutant R56P (human, UniProt Q9NP84 28-77); test: ELISA with purified His-tagged hFn14 R56P; x axis 'Log (c)' without unit, µg/ml by the legend
T4 construct: also called R56P mutant; not shown: (His)6 tag

binding result [1]: binds
binding result [2]: binds
binding result [3]: binds
binding result [4]: binds
binding result [5]: binds
binding result [6]: binds
NFκB-GFP reporter in HEK293T cells (human Fn14): 100 ng/mL
binding result [7]: binds
B1: CRCBT-06-002 (antibody, IgG1, V domains shown)
VH: EVKLQQSGGGLVQPGGSMKLSCVASGFTFSYYWMNWVRQSPEQGLEWIAEIRLQSNDYPTHYAESVKGRFTISRDDSKNSVYLQMNNLRPEDTGIYYCACRYADYFDHWGQGTTLTVSS
VL: DTVLTQSPASLVVSLGQRATISCRASQSVSTSDYSYIHWYQQKPGQPPKFLIKYASNRDSGVPARFSGSGSGTDFTLNIHPVEEDDTAIYYCQHSWEIPPTFGAGTKLELQR

binding result [1]: binds
binding result [2]: binds
binding result [3]: binds
binding result [4]: binds
binding result [5]: binds
binding result [6]: binds
NFκB-GFP reporter in HEK293T cells (human Fn14): 1000 ng/mL
binding result [7]: binds
B2: CRCBT-06-001 (antibody, IgG2b, V domains shown)
VH: QVQLQQSGGGLVQPGGSMKLSCIASGFTFSSYWMSWVRQSPEKGLEWVAEIRSKSDNYATHYAESVKGKFTISRDDSKSRFFLQMNNLRAEDTGIYYCSSTYADYFHYWGQGTDLTVSS
VL: DIVMTQTPASLAVSLGQRATISCRASQSVSTSTYSYMHWYQQKPGQPPKLLIKYASSLESGVPARFSGSGSGTDFTLNIHPVEEDDTATYYCQHSWEIPYTFGGGTKLEIKR
